These results are taken from patent publication US20020037844A1, “SYNTHETIC PEPTIDE FOR TREATMENT OF AUTOIMMUNE ARTHRITIS” (priority 1993, published 2002).

For one experiment, the system named is CII-primed, bulk T cells. Briefly: Inhibition of antigen presentation to CII-primed bulk T cells (co-culture). Type of experiment: cell-based, DBA/1 mice. The conditions noted are these: analog co-cultured with CII 245-270 or native CII at various ratios; FIG. 2. The protocol: T cell stimulation assays were performed in 96 well plates and the degree of stimulation was quantitated by measurements of γ-IFN production. Myers, L. K., K. Terato, J. M. Seyer, J. M. Stuart, and A. H. Kang, 1992, Characterization of a Tolerogenic T Cell Epitope of Type II Collagen and its Relevance to Collagen-Induced Arthritis. J. Immunol. 149:1439. The disclosure of this article is incorporated by reference. Spleens and lymph nodes from mice immunized with CII 14 to 21 days prior were individually minced into single cell suspensions in Hank's Balanced Salt Solution (BSS) and washed 3 times. […] Supernatants were collected from 72 to 120 hours later and either […] analyzed for γ-IFN production immediately or stored at −70° C. prior to analysis. Quantitative measurement of murine gamma interferon was done using a solid-phase enzyme-linked immunosorbent assay (Amgen Biologicals, Thousand Oaks, Calif.). […] The absorbance was measured at 405 nm with a spectrophotometer, and a standard curve was obtained by plotting the absorbance versus the corresponding concentration of the standards. Units of γ-interferon were calculated based on NIH standard number Gg02-901-533. […]

Experiment [1] has as its target T1, I-A^q on the surface of antigen presenting cells (Mus musculus, UniProt P04227+P06342).
T1 construct: containing 4×10^5 syngenic spleen cells and 10^5 T-hybridoma cells; from tissue; host or cells: spleen cells syngeneic to DBA/1 mice (H-2q), used as antigen presenting cells
As to the kind of experiment: Competitive antigen presentation assay: pulsed APC presented to CII 245-270 specific T-cell hybridomas, IL-2 titer. Type of experiment: cell-based, DBA/1 mice. The procedure: Lymph node cells were obtained from DBA/1 mice immunized with α1(II)-CB11 emulsified with complete Freund's adjuvant and cultured in vitro with α1(II)-CB11 for five days, and in the presence of IL-2 for three days before fusion. Hybridoma cells reactive to CB11 [CII 245-270] and CII were cloned by limiting dilution to 0.3 cells/well. Antigen presentation experiments were performed in 96 well […] plates in a total volume of 0.3 ml containing 4×10^5 syngenic spleen cells and 10^5 T-hybridoma cells. For competitive inhibition assays, spleen cells were pulsed with various ratios of inhibitor to indicator peptide and washed several times prior to addition to the antigen presentation culture. Cell cultures were maintained at 37° C. in 5% humidified CO2 for 20 to 24 hours, after which seven 80 μl two-fold serial dilutions were made for determination of IL-2 titers. Four thousand HT-2 cells were added to each supernatant dilution, and after 16 to 20 hours HT-2 cell viability was evaluated by visual inspection. IL-2 titers were determined by the reciprocal of the highest two-fold serial dilution maintaining 90% viability of the HT-2 cells. Results are presented as units of IL-2 per ml of undiluted supernatant as described by Kapper et al. Kappler, J., J. White, D. Wegman, E. Mustain, and P. Marrack, 1982, Antigen Presentation by Ia^+B Cell Hybridomas to H-2 Restricted T Cell Hybridomas. Proc. Natl. Acad. Sci. USA 79:3604. The disclosure of this article is incorporated by reference.
The inability of some analog peptides to stimulate T cells likely occurs either because of disruption of peptide binding to the I-A^q molecule or the inability of the T cell receptor to recognize the peptide. In order to determine whether the analog peptides could bind to the class II molecule, competitive antigen presentation assays were performed. Antigen presenting cells (APC) were pulsed with various molar ratios of CII 245-270 and an analog peptide, and tested for their ability to stimulate CII 245-270 specific T cell hybridomas.

Consider “Pro - Thr - Gly - Pro - Leu - Gly - Pro - Lys - Gly - Gln - Thr - Gly - Glx - Leu - Gly - Ala - 4Hyp - Gly - Asn - Lys - Gly - Glx - Gln - Gly - Pro - Lys [CII 245-270 [s260, 261, 263], analog of CII 245-270 with alanine at 260, hydroxyproline at 261, asparagine at 263]”, for which the “T cell responses to CII 245-270 and CII” value in the experiment on CII-primed, bulk T cells is “significantly decreased responses to both CII 245-270 and CII in a dose dependent manner”. Further, the IL-2 in experiment [1] (T-cell hybrid 2qCII92.33, molar ratio competitor:CII 245-270 1.6:1) is given as 160 U/ml; in experiment [1] (T-cell hybrid 2qCII92.33, molar ratio competitor:CII 245-270 3.2:1), 80 U/ml; in experiment [1] (T-cell hybrid 2qCII92.33, molar ratio competitor:CII 245-270 6.5:1), 20 U/ml; in experiment [1] (T-cell hybrid 2qCII92.33, molar ratio competitor:CII 245-270 13:1), “— (A “—” indicates less than 20 U/ml of IL-2 detected)”; in experiment [1] (T-cell hybrid qCII85.33, molar ratio competitor:CII 245-270 1.6:1), 640 U/ml; in experiment [1] (T-cell hybrid qCII85.33, molar ratio competitor:CII 245-270 3.2:1), 320 U/ml. Besides, the IL-2 in experiment [1] (T-cell hybrid qCII85.33, molar ratio competitor:CII 245-270 6.5:1) is given as 40 U/ml; in experiment [1] (T-cell hybrid qCII85.33, molar ratio competitor:CII 245-270 13:1), “—* (A “—” indicates less than 20 U/ml of IL-2 detected)”; in experiment [1] (T-cell hybrid qCII98.10, molar ratio competitor:CII 245-270 1.6:1), 160 U/ml; in experiment [1] (T-cell hybrid qCII98.10, molar ratio competitor:CII 245-270 3.2:1), 80 U/ml; in experiment [1] (T-cell hybrid qCII98.10, molar ratio competitor:CII 245-270 6.5:1), 40 U/ml; in experiment [1] (T-cell hybrid qCII98.10, molar ratio competitor:CII 245-270 13:1), “— (A “—” indicates less than 20 U/ml of IL-2 detected)”. Further, the “Ability of competitively pulsed APC to stimulate the T-cell hybridomas” value in experiment [1] (analog:CII 245-270 molar ratios of 6:1 or greater) is given as “greatly reduced”. Moreover, the “Binding to I-A^q / competition for presentation of the wild type peptide to T-cell hybridomas” value in experiment [1] (conclusion from Table II) was “capable of binding to I-A^q”.
